Target: T1, human epidermal growth factor receptor (EGFR) (human, UniProt P00533 25-1210)
T1 construct: whole, on cells; also called HER-1; ErbB1
Test: flow cytometry on A431 cells
Method: (§1) The purified, monomeric humanized antibody variants were tested for binding to human epidermal growth factor receptor (EGFR, also referred to in the literature as HER-1 or ErbB1) on the A431 human epidermal cell line, using a flow cytometry-based assay. 200,000 cells (e.g., from human A431 cell line) in 180 μl FACS buffer (PBS containing 2% FCS and 5 mM EDTA) were transferred to 5 ml polystyrene tubes and 20 μl 10 fold concentrated anti-EGFR antibody (primary antibody) samples (1-5000 ng/ml final concentration) or PBS only were added. After gently mixing the samples, the tubes were incubated at 4° C. for 30 min in the dark. Subsequently, samples were washed twice with FACS buffer and pelleted at 300×g for 3 min. Supernatant was aspirated off and cells were taken up in 50 μl FACS buffer and 2 μl secondary antibody (anti-Fc-specific F(ab′)2-FITC fragments (Jackson Immuno Research Laboratories, USA)) was added and the tubes were incubated at 4° C. for 30 min. Samples were washed twice with FACS buffer and taken up in 500 μl of FACS buffer for analysis by Flow Cytometry. Binding was determined by plotting the geometric mean fluorescence against the antibody concentrations.
Only the I-HHA has strongly diminished binding activity (see FIG. 2). […] In this experiment, either the light chain, the heavy chain or both chains simultaneously of the ch-ICR62 were replaced by the above mentioned humanized constructs.

Binder	binding result	EC50	EC50 fold increase relative to ch-ICR62, I-HLA1 and I-HLA2	EC50 fold decrease relative to ch-ICR62
humanized ICR62 antibody I-HHB / I-KC (not glycoengineered) (antibody, human IgG1, V domains shown, also called I-HHB/KC) VH: QVQLVQSGAEVKKPGSSVKVSCKGSGFTFTDYKIHWVRQAPGQGLEWMGYFNPNSGYSTYAQKFQGRVTITADKSTSTAYMELSSLRSEDTAVYYCARLSPGGYYVMDAWGQGTTVTVSS VL: DIQMTQSPSSLSASVGDRVTITCRASQGINNYLNWYQQKPGKAPKRLIYNTNNLQTGVPSRFSGSGSGTEFTLTISSLQPEDFATYYCLQHNSFPTFGQGTKLEIKR	binds	–	–	–
humanized ICR62 antibody I-HLA2 / I-KC (antibody, human IgG1, V domains shown) VH: QVQLVQSGAEVKKPGASVKVSCKASGFTFTDYYMHWVRQAPGQGLEWMGWINPNSGYSTYNEKFQGQVTISADKSISTAYLQWSSLKASDTAMYYCARLSPGGYYVMDAWGQGTTVTVSS VL: DIQMTQSPSSLSASVGDRVTITCRASQGINNYLNWYQQKPGKAPKRLIYNTNNLQTGVPSRFSGSGSGTEFTLTISSLQPEDFATYYCLQHNSFPTFGQGTKLEIKR	–	~0.3 µg/mL	–	–
I-HHC heavy chain combined with the chimeric ICR62 light chain (rVL) (antibody, human IgG1, V domains shown, also called I-HHC / rVL) VH: QVQLVQSGAEVKKPGSSVKVSCKGSGFTFTDYKIHWVRQAPGQGLEWMGYFNPNSGYSTYNEKFKSRVTITADKSTSTAYMELSSLRSEDTAVYYCARLSPGGYYVMDAWGQGTTVTVSS VL: DIQMTQSPSFLSASVGDRVTINCKASQNINNYLNWYQQKLGEAPKRLIYNTNNLQTGIPSRFSGSGSGTDYTLTISSLQPEDFATYFCLQHNSFPTFGAGTKLELKR	binds	–	–	–
humanized ICR62 antibody I-HHG / I-KC (antibody, human IgG1, V domains shown) VH: QVQLVQSGAEVKKPGSSVKVSCKGSGFTFTDYKIHWVRQAPGQGLEWMGYFNPNSGYATYAQKFQGRVTITADKSTSTAYMELSSLRSEDTAVYYCARLSPGGYYVMDAWGQGTTVTVSS VL: DIQMTQSPSSLSASVGDRVTITCRASQGINNYLNWYQQKPGKAPKRLIYNTNNLQTGVPSRFSGSGSGTEFTLTISSLQPEDFATYYCLQHNSFPTFGQGTKLEIKR	binds	–	–	–
humanized ICR62 antibody I-HLA7 / I-KC (antibody, human IgG1, V domains shown) VH: QMQLVQSGPEVKKPGTSVKVSCKASGFTFTDYKIHWVRQARGQRLEWIGWINPNSGYSTYNEKFQGQVTISADKSISTAYLQWSSLKASDTAMYYCARLSPGGYYVMDAWGQGTTVTVSS VL: DIQMTQSPSSLSASVGDRVTITCRASQGINNYLNWYQQKPGKAPKRLIYNTNNLQTGVPSRFSGSGSGTEFTLTISSLQPEDFATYYCLQHNSFPTFGQGTKLEIKR	binds	–	–	–
humanized ICR62 antibody I-HHF / I-KC (antibody, human IgG1, V domains shown) VH: QVQLVQSGAEVKKPGSSVKVSCKGSGFTFTDYKIHWVRQAPGQGLEWMGYFNPNSGYSNYAQKFQGRVTITADKSTSTAYMELSSLRSEDTAVYYCARLSPGGYYVMDAWGQGTTVTVSS VL: DIQMTQSPSSLSASVGDRVTITCRASQGINNYLNWYQQKPGKAPKRLIYNTNNLQTGVPSRFSGSGSGTEFTLTISSLQPEDFATYYCLQHNSFPTFGQGTKLEIKR	binds	–	–	–
humanized ICR62 antibody I-HLA9 / I-KC (antibody, human IgG1, V domains shown) VH: EVQLVQSGAEVKKPGESLKISCKGSGYSFTDYKIHWVRQAPGQGLEWMGYFNPNSGYSTYAQKFQGRVTITADKSTSTAYMELSSLRSEDTAVYYCARLSPGGYYVMDAWGQGTTVTVSS VL: DIQMTQSPSSLSASVGDRVTITCRASQGINNYLNWYQQKPGKAPKRLIYNTNNLQTGVPSRFSGSGSGTEFTLTISSLQPEDFATYYCLQHNSFPTFGQGTKLEIKR	binds	–	–	–
humanized ICR62 antibody I-HLA / I-KB (antibody, human IgG1, V domains shown) VH: QVQLVQSGAEVKKPGASVKVSCKASGFTFTDYYMHWVRQAPGQGLEWMGWINPNSGYSTYAQKFQGRVTMTADTSISTAYMELSRLRSDDTAVYYCARLSPGGYYVMDAWGQGTTVTVSS VL: DIQMTQSPSSLSASVGDRVTITCKASQNINNYLNWYQQKPGKAPKRLIYNTNNLQTGVPSRFSGSGSGTEYTLTISSLQPEDFATYYCLQHNSFPTFGQGTKLEIKR	binds	–	–	–

Results, then the binder that gave them:

binding result	EC50	EC50 fold increase relative to ch-ICR62, I-HLA1 and I-HLA2	EC50 fold decrease relative to ch-ICR62	Binder
–	–	2 fold	–	humanized ICR62 antibody I-HLA4 / I-KC (antibody, human IgG1, V domains shown) VH: QVQLVQSGAEVKKPGASVKVSCKASGYTFTDYYMHWVRQAPGQGLEWMGWINPNSGYSTYNEKFQGQVTISADKSISTAYLQWSSLKASDTAMYYCARLSPGGYYVMDAWGQGTTVTVSS VL: DIQMTQSPSSLSASVGDRVTITCRASQGINNYLNWYQQKPGKAPKRLIYNTNNLQTGVPSRFSGSGSGTEFTLTISSLQPEDFATYYCLQHNSFPTFGQGTKLEIKR
–	~0.3 µg/mL	–	–	humanized ICR62 antibody I-HLA1 / I-KC (antibody, human IgG1, V domains shown) VH: QVQLVQSGAEVKKPGASVKVSCKASGFTFTDYYMHWVRQAPGQGLEWMGWINPNSGYSTYSPSFQGQVTISADKSISTAYLQWSSLKASDTAMYYCARLSPGGYYVMDAWGQGTTVTVSS VL: DIQMTQSPSSLSASVGDRVTITCRASQGINNYLNWYQQKPGKAPKRLIYNTNNLQTGVPSRFSGSGSGTEFTLTISSLQPEDFATYYCLQHNSFPTFGQGTKLEIKR
–	–	2 fold	–	humanized ICR62 antibody I-HLA5 / I-KC (antibody, human IgG1, V domains shown) VH: QMQLVQSGPEVKKPGTSVKVSCKASGFTFTDYYMHWVRQAPGQGLEWMGWINPNSGYSTYSPSFQGQVTISADKSISTAYLQWSSLKASDTAMYYCARLSPGGYYVMDAWGQGTTVTVSS VL: DIQMTQSPSSLSASVGDRVTITCRASQGINNYLNWYQQKPGKAPKRLIYNTNNLQTGVPSRFSGSGSGTEFTLTISSLQPEDFATYYCLQHNSFPTFGQGTKLEIKR
–	–	2 fold	–	humanized ICR62 antibody I-HLA3 / I-KC (antibody, human IgG1, V domains shown) VH: QVQLVQSGAEVKKPGASVKVSCKASGYTFTDYYMHWVRQAPGQGLEWMGWINPNSGYSTYSPSFQGQVTISADKSISTAYLQWSSLKASDTAMYYCARLSPGGYYVMDAWGQGTTVTVSS VL: DIQMTQSPSSLSASVGDRVTITCRASQGINNYLNWYQQKPGKAPKRLIYNTNNLQTGVPSRFSGSGSGTEFTLTISSLQPEDFATYYCLQHNSFPTFGQGTKLEIKR
–	–	2 fold	–	humanized ICR62 antibody I-HLA6 / I-KC (antibody, human IgG1, V domains shown) VH: QMQLVQSGPEVKKPGTSVKVSCKASGFTFTDYYMHWVRQAPGQGLEWMGWINPNSGYSTYNEKFQGQVTISADKSISTAYLQWSSLKASDTAMYYCARLSPGGYYVMDAWGQGTTVTVSS VL: DIQMTQSPSSLSASVGDRVTITCRASQGINNYLNWYQQKPGKAPKRLIYNTNNLQTGVPSRFSGSGSGTEFTLTISSLQPEDFATYYCLQHNSFPTFGQGTKLEIKR
binds	–	–	–	humanized ICR62 antibody I-HLA / I-KA (antibody, human IgG1, V domains shown) VH: QVQLVQSGAEVKKPGASVKVSCKASGFTFTDYYMHWVRQAPGQGLEWMGWINPNSGYSTYAQKFQGRVTMTADTSISTAYMELSRLRSDDTAVYYCARLSPGGYYVMDAWGQGTTVTVSS VL: DIQMTQSPSSLSASVGDRVTITCRASQGINNYLNWYQQKPGKAPKRLIYNTNNLQTGVPSRFSGSGSGTEYTLTISSLQPEDFATYYCLQHNSFPTFGQGTKLEIKR
binds	–	–	–	humanized ICR62 antibody I-HHC / I-KB (antibody, human IgG1, V domains shown) VH: QVQLVQSGAEVKKPGSSVKVSCKGSGFTFTDYKIHWVRQAPGQGLEWMGYFNPNSGYSTYNEKFKSRVTITADKSTSTAYMELSSLRSEDTAVYYCARLSPGGYYVMDAWGQGTTVTVSS VL: DIQMTQSPSSLSASVGDRVTITCKASQNINNYLNWYQQKPGKAPKRLIYNTNNLQTGVPSRFSGSGSGTEYTLTISSLQPEDFATYYCLQHNSFPTFGQGTKLEIKR
–	–	–	2 fold	humanized ICR62 antibody I-HLA8 / I-KC (antibody, human IgG1, V domains shown) VH: QMQLVQSGPEVKKPGTSVKVSCKASGFTFTDYKIHWVRQAPGQGLEWMGYFNPNSGYSTYAQKFQGRVTITADKSTSTAYMELSSLRSEDTAVYYCARLSPGGYYVMDAWGQGTTVTVSS VL: DIQMTQSPSSLSASVGDRVTITCRASQGINNYLNWYQQKPGKAPKRLIYNTNNLQTGVPSRFSGSGSGTEFTLTISSLQPEDFATYYCLQHNSFPTFGQGTKLEIKR

Target: T1, human epidermal growth factor receptor …
Test: flow cytometry on A431 cells; light chain variants paired with I-HHD
Method: as §1
Each of the I-KC variant constructs (I-KCl to I-KC9) was paired with a heavy chain variable region comprising construct I-HHD (SEQ ID NO:16 and SEQ ID NO:15) and a binding assay performed according to the methods described in the previous examples. Constructs I-KCl to I-KC9 were compared to the I-KC construct (SEQ ID NO:46 and SEQ ID NO:45) for binding affinity to EGFR in A431 target cells (FIG. 29). […] Therefore, when paired with a chimeric (e.g., humanized) heavy chain construct specific for EGFR, the light chain can be entirely human (e.g., from a human light chain V gene sequence) and still retain specific binding for EGFR. In particular, CDR2 and CDR3 can be entirely in human germline form.

binding result	Binder
binds	humanized ICR62 antibody I-HHD / I-KC1 (antibody, human IgG1, V domains shown, also called I-KCl) VH: QVQLVQSGAEVKKPGSSVKVSCKASGFTFTDYKIHWVRQAPGQGLEWMGYFNPNSGYSTYAQKFQGRVTITADKSTSTAYMELSSLRSEDTAVYYCARLSPGGYYVMDAWGQGTTVTVSS VL: DIQMTQSPSSLSASVGDRVTITCRASQGIRNYLNWYQQKPGKAPKRLIYNTNNLQTGVPSRFSGSGSGTEFTLTISSLQPEDFATYYCLQHNSFPTFGQGTKLEIKR
binds	humanized ICR62 antibody I-HHD / I-KC2 (antibody, human IgG1, V domains shown) VH: QVQLVQSGAEVKKPGSSVKVSCKASGFTFTDYKIHWVRQAPGQGLEWMGYFNPNSGYSTYAQKFQGRVTITADKSTSTAYMELSSLRSEDTAVYYCARLSPGGYYVMDAWGQGTTVTVSS VL: DIQMTQSPSSLSASVGDRVTITCRASQGINNWLNWYQQKPGKAPKRLIYNTNNLQTGVPSRFSGSGSGTEFTLTISSLQPEDFATYYCLQHNSFPTFGQGTKLEIKR

From patent US20110111461A1 (Hoffmann-La Roche, published 2011)
